Source: patent publication US20230374151A1 (GlaxoSmithKline, published 2023)
Substitutions are numbered along the chain they refer to. Values joined by “and” are separate entries in the source; they are usually repeats but may differ in a detail not shown here. Equal values may be shown once.

T1: MUC1 peptide (non-glycosylated), biotinylated (N-terminal Biotin-PEG2; C-terminal amide)
T1 construct: also called 36-4; 7-36-4
T1 peptide: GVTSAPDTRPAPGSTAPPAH

B1: humanised anti-TnMUC1 scFv protein 11P6 (89A), L0-H5 (scFv)
scFv: DIVMTQSPDSLAVSLGERATINCKSSQSLLNSGDQKNYLTWYQQKPGQPPKLLIYWASTRESGVPDRFSGSGSGTDFTLTISSLQAEDVAVYYCQNDYSYPLTFGQGTKLEIKGGGGSGGGGSGGGGSGGGGSQVQLVQSGAEVKKPGSSVKVSCKASGYTFTDHAIHWVRQAPGQGLEWIGHFSPGNTDIKYNDKFKGRATLTVDRSTSTAYMELSSLRSEDTAVYFCKTSTFFFDYWGQGTTVTVSSAAAHHHHHH
notes: Supernatant of construct 6D6 in the Octet assay; purified 11P6 elsewhere; also called 6D6
B2: humanised anti-TnMUC1 scFv protein 11P12 (94A), L1-H5 (scFv)
scFv: B1 scFv with D1E, I2L
notes: Supernatant of construct 6D12 in the Octet assay; purified 11P12 elsewhere; also called 6D12
B3: humanised anti-TnMUC1 scFv protein 13P16 (97A), L2-H3 (scFv)
scFv: B1 scFv with Y55F, I181M, A201V, L203I, V205A, R207K, F228Y
notes: Supernatant of construct 6D16 in the Octet assay; purified 13P16 elsewhere. scFv of CAR MB024; also called 6D16
B4: humanised anti-TnMUC1 scFv protein 16P4 (82A), L0-H3 (scFv)
scFv: B1 scFv with I181M, A201V, L203I, V205A, R207K, F228Y
notes: Supernatant of construct 6D4 in the Octet assay; purified 16P4 elsewhere. scFv of CAR MB021; also called 6D4
B5: humanised anti-TnMUC1 scFv protein 13P18 (19A), L2-H5 (scFv)
scFv: B1 scFv with Y55F
notes: Supernatant of construct 6D18 in the Octet assay; purified 13P18 elsewhere. scFv of CAR MB025; also called 6D18

Biological target: T2, TnMUC1 peptide (fully glycosylated), biotinylated
T2 construct: Two batches (36-2 and 65-1) of the same peptide; also called 36-2; 7-36-2
Experiment: SPR (Biacore T200), peptide 36-2 on CAP chip, scFv as analyte, 1:1 fit; average
Experimental: (§1) Biotin CAPture Reagent was captured onto the active and reference flow cells for 300 seconds at 2 μl/min. The biotinylated peptides were diluted in BIAcore Running Buffer (as described above) and captured onto the active flow cell only, at a flow rate of 10 μl/min to obtain the capture level calculated in the equation detailed above.
(§2) The humanised anti-TnMUC1 scFv proteins were passed over the reference and active flow cells at 500, 125, 31.25, 7.8, 1.9, 0 nM for binding to TnMUC1 and MUC1 peptides with a 300 second association followed by a 900 seconds dissociation with BIAcore Running Buffer at a flow rate of 30 μl/min.
(§3) BIAcore T200 Evaluation Software v3.0 was used to analyse the data. The data obtained has been fitted to a 1:1 binding model with the Rmax parameter set to local. As this is a capture experiment, a local Rmax parameter would be truly reflective as the protein is recaptured every time and theoretically surface is slightly different at each recapture, possibly producing slightly different capture each time. Kinetic Parameters (KD, kd and kₐ) were calculated for all the humanised anti-TnMUC1 scFv proteins.

Binder	Kd	koff	kon
B1	26.7 nM	0.00137 s⁻¹	51500 M⁻¹ s⁻¹
B2	54.4 nM	0.00155 s⁻¹	28400 M⁻¹ s⁻¹
B3	174 nM	0.00653 s⁻¹	37800 M⁻¹ s⁻¹
B4	196 nM	0.00687 s⁻¹	35100 M⁻¹ s⁻¹
B5	70.9 nM	0.0013 s⁻¹	18400 M⁻¹ s⁻¹

Biological target: T3, STnMUC1 peptide, biotinylated
T3 construct: also called STn peptide; 35-1
Experiment: SPR (Biacore T200): biotinylated STnMUC1 peptide (35-1) captured on CAP chip, scFv as analyte

Binder	Kd
B1	199 nM
B3	445 nM
B4	536 nM
B5	196 nM

Biological target: T3, STnMUC1 peptide, biotinylated
Experiment: SPR (Biacore T200): biotinylated STnMUC1 peptide (35-1) captured on CAP chip, scFv as analyte, 1:1 fit, average

Binder	Kd	koff	kon
B1	199 nM	0.000435 s⁻¹	2200 M⁻¹ s⁻¹
B3	445 nM	0.00117 s⁻¹	2630 M⁻¹ s⁻¹
B4	536 nM	0.00122 s⁻¹	2290 M⁻¹ s⁻¹
B5	196 nM	0.000423 s⁻¹	2160 M⁻¹ s⁻¹

Biological target: T2, TnMUC1 peptide (fully glycosylated), …
Experiment: SPR (Biacore T200), peptide 36-2 on CAP chip, scFv as analyte, 1:1 fit; single run
Experimental: as §1, §2, §3

Binder	Kd	koff	kon
B1	25.7 nM and 27.6 nM	0.00138 s⁻¹ and 0.00135 s⁻¹	53800 M⁻¹ s⁻¹ and 49100 M⁻¹ s⁻¹
B2	53.6 nM and 55.2 nM	0.00158 s⁻¹ and 0.00151 s⁻¹	29400 M⁻¹ s⁻¹ and 27300 M⁻¹ s⁻¹
B3	166 nM and 181 nM	0.00654 s⁻¹ and 0.00652 s⁻¹	39500 M⁻¹ s⁻¹ and 36100 M⁻¹ s⁻¹
B4	195 nM and 197 nM	0.00694 s⁻¹ and 0.0068 s⁻¹	35600 M⁻¹ s⁻¹ and 34500 M⁻¹ s⁻¹
B5	67.6 nM and 74.2 nM	0.00131 s⁻¹ and 0.00129 s⁻¹	19400 M⁻¹ s⁻¹ and 17400 M⁻¹ s⁻¹

Biological target: T4, TnMUC1 peptide 1 (partially glycosylated), biotinylated
T4 construct: also called 96-1; 32A
Experiment: SPR (Biacore T200): biotinylated TnMUC1 peptide 1 (96-1) captured on CAP chip, scFv as analyte

Binder	Kd	koff	kon
B3	231 nM	0.00635 s⁻¹	27500 M⁻¹ s⁻¹

Biological target: T2, TnMUC1 peptide (fully glycosylated), …
Experiment: SPR (Biacore T200): biotinylated TnMUC1 peptide batch 65-1 captured on CAP chip, scFv as analyte

Binder	Kd	koff	kon
B3	195 nM	0.00633 s⁻¹	32600 M⁻¹ s⁻¹

Biological target: T1, MUC1 peptide (non-glycosylated), …
Experiment: SPR (Biacore T200), biotinylated peptide on CAP chip, scFv as analyte

Binder	binding result
B1	no binding (tested: 500 nM)
B2	no binding (tested: 500 nM)
B4	no binding (tested: 500 nM)
B5	no binding (tested: 500 nM)

Biological target: T3, STnMUC1 peptide, biotinylated
Experiment: SPR (Biacore T200): biotinylated STnMUC1 peptide (35-1) captured on CAP chip, scFv as analyte
Remark: another data set of the same source
Experimental: (§4) The CAP chip (from the Biotin CAPture kit) was docked into BIAcore T200 instrument to hydrate overnight, as per manufacturer instructions. When the chip is docked (for the first time or after storage), the surface of the sensor chip needs to be conditioned with 3×1 minute injections of Regeneration Solution (from the Biotin CAPture kit). Regeneration Solution was prepared by mixing 3 parts of Regeneration Stock 1 (8M Guanidine-HCl) with 1-part Regeneration Stock 2 (1M NaOH). Both the reference and active flow cells of the sensor chip were conditioned with 3×60 second injections of Regeneration Solution at a flow rate of 10 μl/min.
as §1

Binder	Kd	koff	kon
B3	445 nM	0.00117 s⁻¹	2630 M⁻¹ s⁻¹

Biological target: T4, TnMUC1 peptide 1 (partially …)
Experiment: SPR (Biacore T200): biotinylated TnMUC1 peptide 1 (96-1) captured on CAP chip, scFv as analyte, 1:1 fit, average
Experimental: as §1, §2, §3

Binder	Kd	koff	kon
B1	60.3 nM	0.00135 s⁻¹	22500 M⁻¹ s⁻¹
B3	231 nM	0.00635 s⁻¹	27500 M⁻¹ s⁻¹
B4	250 nM	0.00708 s⁻¹	28500 M⁻¹ s⁻¹
B5	51.1 nM	0.00131 s⁻¹	

Biological target: T2, TnMUC1 peptide (fully glycosylated), …
Experiment: SPR (Biacore T200), peptide 36-2 on CAP chip, scFv as analyte, 1:1 fit; average, restated in nM
Experimental: as §1, §2, §3

Binder	Kd
B1	26.7 nM
B2	54 nM
B3	174 nM
B4	196 nM
B5	70.9 nM

Biological target: T3, STnMUC1 peptide, biotinylated
Experiment: SPR (Biacore T200), STnMUC1 peptide on CAP chip, scFv as analyte
Experimental: as §4, §1

Binder	fold lower affinity than the murine 5E5 scFv protein
B2	~10 fold
B3	~10 fold
B4	~10 fold
B5	~10 fold

Biological target: T1, MUC1 peptide (non-glycosylated), …
Experiment: SPR (Biacore T200): biotinylated peptide captured on CAP chip, scFv as analyte

Binder	binding result
B3	no binding

Biological target: T2, TnMUC1 peptide (fully glycosylated), …
Experiment: SPR (Biacore T200): biotinylated TnMUC1 peptide batch 65-1 captured on CAP chip, scFv as analyte, 1:1 fit, average
Experimental: as §1, §2, §3

Binder	Kd	koff	kon
B1	48.6 nM	0.00136 s⁻¹	28000 M⁻¹ s⁻¹
B3	195 nM	0.00633 s⁻¹	32600 M⁻¹ s⁻¹
B4	208 nM	0.00698 s⁻¹	33900 M⁻¹ s⁻¹
B5	40.7 nM	0.00127 s⁻¹	
